The values below come from publication PMC11321683, “A Functional InDel in the WRKY10 Promoter Controls the Degree of Flesh Red Pigmentation in Apple”.

To fix the notation:
B1: proMdMYB10 W2 (dsDNA)
DNA 1: TGATAAAGGTATCTTATGGTGGTCAAAGATGTGTGTTGTAACTAGT
DNA 2: ACTAGTTACAACACACATCTTTGACCACCATAAGATACCTTTATCA
B2: proMdMYB10 W2 mutant (dsDNA)
DNA 1: TGATAAAGGTATCTTATGGTGGGAAAAGATGTGTGTTGTAACTAGT
DNA 2: ACTAGTTACAACACACATCTTTTCCCACCATAAGATACCTTTATCA
B3: proMdF3'5'H W2 (dsDNA)
DNA 1: TAAATAGTATCTAACGAAAATTGACCGCACGATATACAATGAACGA
DNA 2: TCGTTCATTGTATATCGTGCGGTCAATTTTCGTTAGATACTATTTA
B4: proMdF3'5'H W2 mutant (dsDNA)
DNA 1: TAAATAGTATCTAACGAAAATTTCCCGCACGATATACAATGAACGA
DNA 2: TCGTTCATTGTATATCGTGCGGGAAATTTTCGTTAGATACTATTTA
B5: proMdF3'5'H W3 (dsDNA)
DNA 1: TCACTCATATAGGTAAACTTTGTCAAGGATGTTCATGTAATTATAA
DNA 2: TTATAATTACATGAACATCCTTGACAAAGTTTACCTATATGAGTGA
B6: proMdF3'5'H W3 mutant (dsDNA)
DNA 1: TCACTCATATAGGTAAACTTTGGAAAGGATGTTCATGTAATTATAA
DNA 2: TTATAATTACATGAACATCCTTTCCAAAGTTTACCTATATGAGTGA
B7: proMdUFGT W5 (dsDNA)
DNA 1: TTTTTTGCAACAAATTACCTTTGACTAACAAAACAAGGATATTTCT
DNA 2: AGAAATATCCTTGTTTTGTTAGTCAAAGGTAATTTGTTGCAAAAAA
B8: proMdUFGT W5 mutant (dsDNA)
DNA 1: TTTTTTGCAACAAATTACCTTTTCCTAACAAAACAAGGATATTTCT
DNA 2: AGAAATATCCTTGTTTTGTTAGGAAAAGGTAATTTGTTGCAAAAAA

In this data set the target is MdWRKY10 (Malus domestica, UniProt D9ZJE9 1-528). The data set can be described thus: EMSA; EMSA with LightShift chemiluminescent kit (Thermo) per manufacturer; buffer, pH and temperature not stated. The settings on record: protein: recombinant; tags: His (pET-32a(+) vector); label: 3' biotin; blunt. (Mobility shift assays separate free from complexed probe on a gel.)
MdWRKY10, sequence (D9ZJE9 entry or part of it): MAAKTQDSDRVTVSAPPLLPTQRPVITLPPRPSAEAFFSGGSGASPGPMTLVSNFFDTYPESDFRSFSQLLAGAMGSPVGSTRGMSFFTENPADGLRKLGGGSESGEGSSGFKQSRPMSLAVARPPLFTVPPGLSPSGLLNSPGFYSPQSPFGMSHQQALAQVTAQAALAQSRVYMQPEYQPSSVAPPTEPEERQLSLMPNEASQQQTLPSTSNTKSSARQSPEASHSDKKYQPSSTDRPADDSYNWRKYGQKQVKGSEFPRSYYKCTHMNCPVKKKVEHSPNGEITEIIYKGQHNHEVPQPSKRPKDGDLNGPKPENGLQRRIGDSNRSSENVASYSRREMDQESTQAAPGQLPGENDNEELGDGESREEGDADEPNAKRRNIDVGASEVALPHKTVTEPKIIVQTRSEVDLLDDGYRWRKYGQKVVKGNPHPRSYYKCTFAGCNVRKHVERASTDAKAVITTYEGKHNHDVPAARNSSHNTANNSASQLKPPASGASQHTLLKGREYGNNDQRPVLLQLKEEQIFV
With B1, the binding result is given as “binds”.

Regarding B2, the binding result is listed as “no binding”.

Regarding B3, the binding result is “binds”.

As to B4, the binding result was “no binding”.

As for B5, the binding result was “binds”.

Consider B6, for which the binding result was “no binding”.

Consider B7, for which the binding result is recorded as “binds”.

B8: the binding result is “no binding”.
